Laboratory results taken from IntAct's records for PubMed 22266823.

B1: Fanconi anemia core complex-associated protein 20 (Homo sapiens), Q6NZ36-1 (parent)
chain: MEAARRPRLGLSRRRPRPAGGPSGGRPWFLLGGDERERLWAELLRTVSPELILDHEVPSLPAFPGQEPRCGPEPTEVFTVGPKTFSWTPFPPDLWGPGRSYRLLHGAGGHLESPARSLPQRPAPDPCRAPRVEQQPSVEGAAALRSCPMCQKEFAPRLTQLDVDSHLAQCLAESTEDVTW
partner: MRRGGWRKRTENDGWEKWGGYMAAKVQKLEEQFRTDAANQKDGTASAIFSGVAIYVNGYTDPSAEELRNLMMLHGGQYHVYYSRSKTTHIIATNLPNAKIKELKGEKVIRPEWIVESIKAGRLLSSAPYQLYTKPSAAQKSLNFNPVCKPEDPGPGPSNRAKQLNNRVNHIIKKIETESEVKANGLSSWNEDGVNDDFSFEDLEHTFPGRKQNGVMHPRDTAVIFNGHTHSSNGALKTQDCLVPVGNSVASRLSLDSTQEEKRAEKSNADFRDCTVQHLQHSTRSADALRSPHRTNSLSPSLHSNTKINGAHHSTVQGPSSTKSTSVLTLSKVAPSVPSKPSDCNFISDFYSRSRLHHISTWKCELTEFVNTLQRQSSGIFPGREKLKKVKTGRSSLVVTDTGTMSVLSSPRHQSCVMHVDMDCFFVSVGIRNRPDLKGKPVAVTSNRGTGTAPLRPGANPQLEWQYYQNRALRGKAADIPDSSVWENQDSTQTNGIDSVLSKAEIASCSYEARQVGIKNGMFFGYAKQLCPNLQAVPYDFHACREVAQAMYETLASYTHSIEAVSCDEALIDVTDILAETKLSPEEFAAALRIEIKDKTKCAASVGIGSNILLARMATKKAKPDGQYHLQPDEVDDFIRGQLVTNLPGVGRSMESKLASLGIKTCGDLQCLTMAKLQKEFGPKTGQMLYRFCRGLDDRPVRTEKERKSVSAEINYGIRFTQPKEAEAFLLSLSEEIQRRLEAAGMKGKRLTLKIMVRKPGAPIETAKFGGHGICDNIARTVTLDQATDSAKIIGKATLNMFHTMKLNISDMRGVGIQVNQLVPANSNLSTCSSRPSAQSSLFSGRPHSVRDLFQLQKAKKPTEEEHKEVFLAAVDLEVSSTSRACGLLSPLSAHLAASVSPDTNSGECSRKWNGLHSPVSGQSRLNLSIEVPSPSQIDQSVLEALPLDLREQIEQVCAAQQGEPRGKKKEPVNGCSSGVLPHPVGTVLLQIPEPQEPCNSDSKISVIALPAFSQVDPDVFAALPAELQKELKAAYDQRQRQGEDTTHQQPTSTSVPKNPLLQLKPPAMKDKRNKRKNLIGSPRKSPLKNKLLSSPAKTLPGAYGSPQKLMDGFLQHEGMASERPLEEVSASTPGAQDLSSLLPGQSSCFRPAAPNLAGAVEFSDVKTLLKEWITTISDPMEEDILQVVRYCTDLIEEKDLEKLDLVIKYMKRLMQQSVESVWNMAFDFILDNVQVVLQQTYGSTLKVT

Variants of: B1
Details: with rev1_mouse Rev1, Q920Q2

Row | effect of a mutation on the interaction | Variant
1 | disrupting interaction strength | C147A;C150A
